± gives the standard deviation of the averaged measurements.
Tests used:
Saccharomyces cerevisiae [1] = assay: protein stability index of tFT-peptide fusion (C-terminal peptide) (PSI (0-1 scale)); higher = more stable (slower turnover)
Method: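 MPS profiling in S. cerevisiae of the tFT-X12 degron library: putative degron peptides plus stable controls, 12 aa, fused to the C-terminus of a sfGFP-mCherry timer. Cells are FACS-sorted into 8 mCherry/sfGFP bins and deep-sequenced. PSI runs from 0 (unstable) to 1 (stable). Backgrounds are wild type, das1Δ and doa10Δ at 30 °C, and wild type, das1Δ, cdc34-1 and cdc53-1 at 37 °C; 2-3 technical replicates each.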

Saccharomyces cerevisiae [2] = assay: as above; conditions: genetic background: wild type; temperature: 30 C
[3] = genetic background: cdc34-1, temperature: 37 C
[4] = genetic background: cdc53-1, temperature: 37 C
[5] = genetic background: das1 deletion, temperature: 30 C
[6] = genetic background: das1 deletion, temperature: 37 C
[7] = genetic background: doa10 deletion, temperature: 30 C
[8] = genetic background: wild type, temperature: 30 C
[9] = genetic background: wild type, temperature: 37 C
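Also: PSI is a weighted mean of sequencing reads over stability bins, variants kept only with over 10 reads, mCherry proximal and sfGFP distal, peptide attached via GGGS linker.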

Row | Sequence | protein stability index (Saccharomyces cerevisiae [1]; [3]) | protein stability index (Saccharomyces cerevisiae [1]; [4]) | protein stability index (Saccharomyces cerevisiae [1]; [5]) | protein stability index (Saccharomyces cerevisiae [1]; [6]) | protein stability index (Saccharomyces cerevisiae [1]; [7]) | protein stability index (Saccharomyces cerevisiae [1]; [8]) | protein stability index (Saccharomyces cerevisiae [1]; [9]) | protein stability index (Saccharomyces cerevisiae [2])
1 | RLVMAVRVAAGG | 0.509 ± 0.025 | 0.532 ± 0.0023 | 0.347 ± 0.033 | 0.55975 ± 0.00038 | 0.327 ± 0.011 | 0.349 ± 0.015 | 0.524 ± 0.031 | 0.451 ± 0.034
2 | RMLSLFFPLRTL | 0.651 ± 0.068 | 0.69994 ± 0.00052 | 0.624 ± 0.02 | 0.724 ± 0.024 | 0.196 ± 0.011 | 0.243 ± 0.048 | 0.4527 ± 0.0036 | 0.395 ± 0.035
3 | RNWVVDGWRRFP | 0.656 ± 0.03 | 0.7425 ± 0.0034 | 0.684 ± 0.019 | 0.73543 ± 0.00011 | 0.17 ± 0.0075 | 0.192 ± 0.039 | 0.525 ± 0.031 | 0.282 ± 0.069
4 | RPCLSALRFRFF | 0.68 ± 0.037 | 0.764 ± 0.029 | 0.655 ± 0.042 | 0.727 ± 0.064 | 0.141 ± 0.023 | 0.162 ± 0.026 | 0.3204 ± 0.00076 | 0.206 ± 0.015
5 | RPHPLHIPRRLA | 0.624 ± 0.054 | 0.6848 ± 0.0035 | 0.684 ± 0.01 | 0.692 ± 0.047 | 0.146 ± 0.011 | 0.216 ± 0.072 | 0.391 ± 0.037 | 0.238 ± 0.028
6 | RQINEKKKLYMI | 0.513 ± 0.029 | 0.673 ± 0.14 | 0.639 ± 0.024 | 0.727 ± 0.041 | 0.1 ± 0.013 | 0.102 ± 0.028 | 0.182 ± 0.029 | 0.215 ± 0.033
7 | RRGLIFFLCCPA | 0.38308 ± 5.8e-05 | 0.4335 ± 0.0019 | 0.336 ± 0.027 | 0.472 ± 0.013 | 0.31 ± 0.0072 | 0.332 ± 0.039 | 0.432 ± 0.011 | 0.466 ± 0.053
8 | RRLYERNKNNKQ | 0.696 ± 0.024 | 0.741 ± 0.049 | 0.611 ± 0.036 | 0.729 ± 0.061 | 0.311 ± 0.019 | 0.387 ± 0.067 | 0.649 ± 0.013 | 0.435 ± 0.072
9 | RRRRGGQSPALR | 0.651 ± 0.049 | 0.674 ± 0.0087 | 0.71 ± 0.032 | 0.6928 ± 0.0059 | 0.735 ± 0.022 | 0.717 ± 0.03 | 0.6636 ± 0.0065 | 0.711 ± 0.015
10 | RRTTIFDTKEPP | 0.561 ± 0.02 | 0.563 ± 0.028 | 0.523 ± 0.062 | 0.5752 ± 0.0014 | 0.532 ± 0.028 | 0.511 ± 0.019 | 0.5689 ± 0.0054 | 0.462 ± 0.017
11 | RRVFPLIIVLLF | 0.115 ± 0.023 | 0.152 ± 0.014 | 0.172 ± 0.031 | 0.279 ± 0.016 | 0.174 ± 0.0077 | 0.126 ± 0.022 | 0.221 ± 0.013 | 0.202 ± 0.0087
12 | RSCKSIRGIFVC | 0.606 ± 0.068 | 0.7199 ± 0.0018 | 0.543 ± 0.018 | 0.719 ± 0.022 | 0.2 ± 0.0066 | 0.229 ± 0.02 | 0.388 ± 0.013 | 0.315 ± 0.027
13 | RSFPCITVFIRA | 0.514 ± 0.011 | 0.469 ± 0.029 | 0.328 ± 0.036 | 0.50913 ± 0.00021 | 0.325 ± 0.03 | 0.323 ± 0.023 | 0.5088 ± 0.0019 | 0.4235 ± 0.0035
14 | RSKWEKLDKIVS | 0.675 ± 0.032 | 0.777 ± 0.045 | 0.629 ± 0.051 | 0.681 ± 0.0091 | 0.314 ± 0.022 | 0.396 ± 0.047 | 0.575 ± 0.018 | 0.455 ± 0.0083
15 | RVCVFVLFGLCF | 0.352 ± 0.041 | 0.401 ± 0.0075 | 0.324 ± 0.04 | 0.48 ± 0.0059 | 0.309 ± 0.0047 | 0.315 ± 0.022 | 0.441 ± 0.0053 | 0.383 ± 0.011
16 | RWGLCFVHVTMF | 0.0369 ± 0.011 | 0.0963 ± 0.011 | 0.149 ± 0.046 | 0.215 ± 0.015 | 0.115 ± 0.01 | 0.106 ± 0.039 | 0.152 ± 0.014 | 0.173 ± 0.011
17 | RWRLWVGWWVVG | 0.4532 ± 0.0039 | 0.587 ± 0.0088 | 0.456 ± 0.022 | 0.601 ± 0.013 | 0.1043 ± 0.00095 | 0.118 ± 0.0076 | 0.142 ± 0.017 | 0.12 ± 0.0055
18 | RYRVRIVVFGLV | 0.407 ± 0.018 | 0.485 ± 0.068 | 0.365 ± 0.015 | 0.59 ± 0.032 | 0.075 ± 0.02 | 0.088 ± 0.046 | 0.0807 ± 0.0076 | 0.14 ± 0.018
19 | SCFCFRVLLCSF | 0.333 ± 0.041 | 0.348 ± 0.0054 | 0.336 ± 0.023 | 0.402 ± 0.019 | 0.325 ± 0.021 | 0.297 ± 0.019 | 0.364 ± 0.0086 | 0.383 ± 0.0064
20 | SCLFMLFPLVSV | 0.475 ± 0.0048 | 0.505 ± 0.015 | 0.421 ± 0.031 | 0.529 ± 0.01 | 0.412 ± 0.0097 | 0.409 ± 0.033 | 0.5013 ± 0.0033 | 0.432 ± 0.0046
21 | SCLLVVVSTSGN | 0.5364 ± 0.0018 | 0.573 ± 0.0061 | 0.404 ± 0.043 | 0.611 ± 0.0019 | 0.374 ± 0.015 | 0.4057 ± 0.002 | 0.588 ± 0.022 | 0.433 ± 0.0062
22 | SFFVCVRVFGCC | 0.315 ± 0.012 | 0.369 ± 0.011 | 0.255 ± 0.042 | 0.44 ± 0.0095 | 0.2075 ± 0.0016 | 0.239 ± 0.018 | 0.398 ± 0.011 | 0.337 ± 0.021
23 | SFFWAMSLLCFV | 0.511 ± 0.025 | 0.559 ± 0.012 | 0.443 ± 0.025 | 0.549 ± 0.018 | 0.402 ± 0.022 | 0.414 ± 0.024 | 0.498 ± 0.00077 | 0.455 ± 0.043
24 | SFGLICFLILCG | 0.218 ± 0.0065 | 0.218 ± 0.052 | 0.206 ± 0.03 | 0.372 ± 0.038 | 0.173 ± 0.023 | 0.205 ± 0.014 | 0.301 ± 0.0073 | 0.2964 ± 0.00086
25 | SFIVGYRWNNRN | 0.672 ± 0.018 | 0.738 ± 0.035 | 0.647 ± 0.015 | 0.7542 ± 0.0063 | 0.337 ± 0.033 | 0.378 ± 0.0046 | 0.5776 ± 0.0018 | 0.443 ± 0.047
26 | SFVVVFTFFFGC | 0.272 ± 0.018 | 0.381 ± 0.031 | 0.239 ± 0.032 | 0.408 ± 0.026 | 0.221 ± 0.011 | 0.258 ± 0.036 | 0.377 ± 0.02 | 0.312 ± 0.015
27 | SGFLRFRGLVCY | 0.396 ± 0.016 | 0.445 ± 0.021 | 0.288 ± 0.043 | 0.503 ± 0.0067 | 0.233 ± 0.0028 | 0.278 ± 0.038 | 0.464 ± 0.008 | 0.359 ± 0.019
28 | SGFWVSVDVFFV | 0.0673 ± 0.026 | 0.171 ± 0.022 | 0.155 ± 0.03 | 0.32 ± 0.015 | 0.122 ± 0.012 | 0.136 ± 0.026 | 0.29 ± 0.0036 | 0.2434 ± 0.0016
29 | SGLPLVILFLCL | 0.529 ± 0.0086 | 0.635 ± 0.04 | 0.435 ± 0.028 | 0.625 ± 0.022 | 0.441 ± 0.026 | 0.436 ± 0.019 | 0.576 ± 0.038 | 0.476 ± 0.0088
30 | SGRATSSRTSEP | 0.67 ± 0.035 | 0.72963 ± 0.00027 | 0.661 ± 0.01 | 0.713 ± 0.0042 | 0.662 ± 0.03 | 0.6625 ± 0.0048 | 0.7036 ± 0.0011 | 0.78 ± 0.024

From the supplement of paper PMC10724198
